Assay results as given in article PMC2173217 (The Journal of Cell Biology, 2002).
Read-outs that look alike come from different tables or passages of the source.

B1: Sec23/24p (complex, S. cerevisiae)
chain 1: MDFETNEDINGVRFTWNVFPSTRSDANSNVVPVGCLYTPLKEYDELNVAPYNPVVCSGPHCKSILNPYCVIDPRNSSWSCPICNSRNHLPPQYTNLSQENMPLELQSTTIEYITNKPVTVPPIFFFVVDLTSETENLDSLKESIITSLSLLPPNALIGLITYGNVVQLHDLSSETIDRCNVFRGDREYQLEALTEMLTGQKPTGPGGAASHLPNAMNKVTPFSLNRFFLPLEQVEFKLNQLLENLSPDQWSVPAGHRPLRATGSALNIASLLLQGCYKNIPARIILFASGPGTVAPGLIVNSELKDPLRSHHDIDSDHAQHYKKACKFYNQIAQRVAANGHTVDIFAGCYDQIGMSEMKQLTDSTGGVLLLTDAFSTAIFKQSYLRLFAKDEEGYLKMAFNGNMAVKTSKDLKVQGLIGHASAVKKTDANNISESEIGIGATSTWKMASLSPYHSYAIFFEIANTAANSNPMMSAPGSADRPHLAYTQFITTYQHSSGTNRIRVTTVANQLLPFGTPAIAASFDQEAAAVLMARIAVHKAETDDGADVIRWLDRTLIKLCQKYADYNKDDPQSFRLAPNFSLYPQFTYYLRRSQFLSVFNNSPDETAFYRHIFTREDTTNSLIMIQPTLTSFSMEDDPQPVLLDSISVKPNTILLLDTFFFILIYHGEQIAQWRKAGYQDDPQYADFKALLEEPKLEAAELLVDRFPLPRFIDTEAGGSQARFLLSKLNPSDNYQDMARGGSTIVLTDDVSLQNFMTHLQQVAVSGQA
chain 2: MSHHKKRVYPQAQLQYGQNATPLQQPAQFMPPQDPAAAGMSYGQMGMPPQGAVPSMGQQQFLTPAQEQLHQQIDQATTSMNDMHLHNVPLVDPNAYMQPQVPVQMGTPLQQQQQPMAAPAYGQPSAAMGQNMRPMNQLYPIDLLTELPPPITDLTLPPPPLVIPPERMLVPSELSNASPDYIRSTLNAVPKNSSLLKKSKLPFGLVIRPYQHLYDDIDPPPLNEDGLIVRCRRCRSYMNPFVTFIEQGRRWRCNFCRLANDVPMQMDQSDPNDPKSRYDRNEIKCAVMEYMAPKEYTLRQPPPATYCFLIDVSQSSIKSGLLATTINTLLQNLDSIPNHDERTRISILCVDNAIHYFKIPLDSENNEESADQINMMDIADLEEPFLPRPNSMVVSLKACRQNIETLLTKIPQIFQSNLITNFALGPALKSAYHLIGGVGGKIIVVSGTLPNLGIGKLQRRNESGVVNTSKETAQLLSCQDSFYKNFTIDCSKVQITVDLFLASEDYMDVASLSNLSRFTAGQTHFYPGFSGKNPNDIVKFSTEFAKHISMDFCMETVMRARGSTGLRMSRFYGHFFNRSSDLCAFSTMPRDQSYLFEVNVDESIMADYCYVQVAVLLSLNNSQRRIRIITLAMPTTESLAEVYASADQLAIASFYNSKAVEKALNSSLDDARVLINKSVQDILATYKKEIVVSNTAGGAPLRLCANLRMFPLLMHSLTKHMAFRSGIVPSDHRASALNNLESLPLKYLIKNIYPDVYSLHDMADEAGLPVQTEDGEATGTIVLPQPINATSSLFERYGLYLIDNGNELFLWMGGDAVPALVFDVFGTQDIFDIPIGKQEIPVVENSEFNQRVRNIINQLRNHDDVITYQSLYIVRGASLSEPVNHASAREVATLRLWASSTLVEDKILNNESYREFLQIMKARISK

Experiments:
Test in all cases: liposome flotation
[1] = target: T1, MBP–Sec16p (S. cerevisiae, UniProt P48415 1-2195)
[2] = target: T1, MBP–Sec16p; remark: listed apart in the source
[3] = target: B1

T1 sequence (P48415 whole entry): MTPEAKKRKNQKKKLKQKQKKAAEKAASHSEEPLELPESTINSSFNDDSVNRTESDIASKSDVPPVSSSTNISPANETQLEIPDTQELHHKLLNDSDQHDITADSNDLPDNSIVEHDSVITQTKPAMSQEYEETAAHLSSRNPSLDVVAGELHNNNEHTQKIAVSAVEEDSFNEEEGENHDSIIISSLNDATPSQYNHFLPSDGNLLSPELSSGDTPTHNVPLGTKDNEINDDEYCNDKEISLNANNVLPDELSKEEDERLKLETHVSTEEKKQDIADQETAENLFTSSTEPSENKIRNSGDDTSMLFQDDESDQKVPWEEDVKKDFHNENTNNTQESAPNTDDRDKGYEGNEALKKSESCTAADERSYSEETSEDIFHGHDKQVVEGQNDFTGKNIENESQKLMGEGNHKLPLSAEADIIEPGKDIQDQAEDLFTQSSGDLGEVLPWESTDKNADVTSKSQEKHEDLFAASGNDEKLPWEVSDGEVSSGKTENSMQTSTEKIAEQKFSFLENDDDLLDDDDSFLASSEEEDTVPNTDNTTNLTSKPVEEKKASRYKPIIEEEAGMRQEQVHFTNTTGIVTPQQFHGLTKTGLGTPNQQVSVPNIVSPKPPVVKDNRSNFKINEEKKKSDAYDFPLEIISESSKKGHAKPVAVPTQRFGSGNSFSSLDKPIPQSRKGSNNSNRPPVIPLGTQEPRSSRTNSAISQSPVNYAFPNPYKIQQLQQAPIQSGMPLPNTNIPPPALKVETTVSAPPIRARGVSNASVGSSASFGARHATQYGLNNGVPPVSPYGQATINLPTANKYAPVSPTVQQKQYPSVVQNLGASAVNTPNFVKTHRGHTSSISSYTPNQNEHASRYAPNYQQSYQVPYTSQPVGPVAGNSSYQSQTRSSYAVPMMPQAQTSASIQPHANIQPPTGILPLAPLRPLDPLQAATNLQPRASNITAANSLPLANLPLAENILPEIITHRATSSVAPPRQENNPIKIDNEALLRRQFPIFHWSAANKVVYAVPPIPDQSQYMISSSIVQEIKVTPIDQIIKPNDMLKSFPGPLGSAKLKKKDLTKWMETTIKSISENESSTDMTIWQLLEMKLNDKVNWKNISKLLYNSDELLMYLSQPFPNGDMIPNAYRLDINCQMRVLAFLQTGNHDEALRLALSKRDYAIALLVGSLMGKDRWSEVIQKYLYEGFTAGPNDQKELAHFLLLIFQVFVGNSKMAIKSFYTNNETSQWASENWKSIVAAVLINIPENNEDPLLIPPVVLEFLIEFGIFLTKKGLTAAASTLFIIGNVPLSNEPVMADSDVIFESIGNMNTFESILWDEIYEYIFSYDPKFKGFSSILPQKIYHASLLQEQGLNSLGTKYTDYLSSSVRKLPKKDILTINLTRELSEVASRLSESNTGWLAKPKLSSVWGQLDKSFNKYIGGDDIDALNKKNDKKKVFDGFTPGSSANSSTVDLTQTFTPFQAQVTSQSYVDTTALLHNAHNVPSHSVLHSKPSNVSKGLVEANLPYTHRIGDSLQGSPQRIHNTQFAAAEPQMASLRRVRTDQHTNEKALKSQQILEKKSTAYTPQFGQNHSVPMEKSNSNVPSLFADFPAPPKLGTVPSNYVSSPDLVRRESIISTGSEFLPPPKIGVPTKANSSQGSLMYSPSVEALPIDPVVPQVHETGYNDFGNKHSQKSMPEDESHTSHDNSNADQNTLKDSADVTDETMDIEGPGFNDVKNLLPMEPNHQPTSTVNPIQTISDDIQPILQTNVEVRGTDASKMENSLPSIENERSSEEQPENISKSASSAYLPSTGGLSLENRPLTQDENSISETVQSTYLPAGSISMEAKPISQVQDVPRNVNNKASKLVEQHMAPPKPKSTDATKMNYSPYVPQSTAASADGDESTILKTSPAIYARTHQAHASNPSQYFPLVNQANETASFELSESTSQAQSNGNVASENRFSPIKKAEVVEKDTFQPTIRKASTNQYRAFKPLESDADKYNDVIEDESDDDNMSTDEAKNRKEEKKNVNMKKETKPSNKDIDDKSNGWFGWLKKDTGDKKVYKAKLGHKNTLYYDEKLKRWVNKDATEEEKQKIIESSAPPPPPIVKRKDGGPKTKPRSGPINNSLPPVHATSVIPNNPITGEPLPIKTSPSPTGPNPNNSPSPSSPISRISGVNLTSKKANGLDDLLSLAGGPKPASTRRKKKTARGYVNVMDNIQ

B1
binding result [1]: binds

B2: Sar1p (enzyme)
chain: not shown
binding result [2]: binds

B3: Sec13/31p (complex, S. cerevisiae)
chain 1: MVVIANAHNELIHDAVLDYYGKRLATCSSDKTIKIFEVEGETHKLIDTLTGHEGPVWRVDWAHPKFGTILASCSYDGKVLIWKEENGRWSQIAVHAVHSASVNSVQWAPHEYGPLLLVASSDGKVSVVEFKENGTTSPIIIDAHAIGVNSASWAPATIEEDGEHNGTKESRKFVTGGADNLVKIWKYNSDAQTYVLESTLEGHSDWVRDVAWSPTVLLRSYLASVSQDRTCIIWTQDNEQGPWKKTLLKEEKFPDVLWRASWSLSGNVLALSGGDNKVTLWKENLEGKWEPAGEVHQ
chain 2: MVKLAEFSRTATFAWSHDKIPLLVSGTVSGTVDANFSTDSSLELWSLLAADSEKPIASLQVDSKFNDLDWSHNNKIIAGALDNGSLELYSTNEANNAINSMARFSNHSSSVKTVKFNAKQDNVLASGGNNGEIFIWDMNKCTESPSNYTPLTPGQSMSSVDEVISLAWNQSLAHVFASAGSSNFASIWDLKAKKEVIHLSYTSPNSGIKQQLSVVEWHPKNSTRVATATGSDNDPSILIWDLRNANTPLQTLNQGHQKGILSLDWCHQDEHLLLSSGRDNTVLLWNPESAEQLSQFPARGNWCFKTKFAPEAPDLFACASFDNKIEVQTLQNLTNTLDEQETETKQQESETDFWNNVSREESKEKPTVFHLQAPTWYGEPSPAAHWAFGGKLVQITPDGKGVSITNPKISGLESNTTLSEALKTKDFKPLINQRLVKVIDDVNEEDWNLLEKLSMDGTEEFLKEALAFDNDESDAQDDANNEKEDDGEEFFQQIETNFQPEGDFSLSGNIEQTISKNLVSGNIKSAVKNSLENDLLMEAMVIALDSNNERLKESVKNAYFAKYGSKSSLSRILYSISKREVDDLVENLDVSQWKFISKAIQNLYPNDIAQRNEMLIKLGDRLKENGHRQDSLTLYLAAGSLDKVASIWLSEFPDLEDKLKKDNKTIYEAHSECLTEFIERFTVFSNFINGSSTINNEQLIAKFLEFINLTTSTGNFELATEFLNSLPSDNEEVKTEKARVLIASGKSLPAQNPATATTSKAKYTNAKTNKNVPVLPTPGMPSTTSIPSMQAPFYGMTPGASANALPPKPYVPATTTSAPVHTEGKYAPPSQPSMASPFVNKTNSSTRLNSFAPPPNPYATATVPATNVSTTSIPQNTFAPIQPGMPIMGDYNAQSSSIPSQPPINAVSGQTPHLNRKANDGWNDLPLKVKEKPSRAKAVSVAPPNILSTPTPLNGIPANAASTMPPPPLSRAPSSVSMVSPPPLHKNSRVPSLVATSESPRASISNPYAPPQSSQQFPIGTISTANQTSNTAQVASSNPYAPPPQQRVATPLSGGVPPAPLPKASNPYAPTATTQPNGSSYPPTGPYTNNHTMTSPPPVFNKPPTGPPPISMKKRSNKLASIEQNPSQGATYPPTLSSSASPLQPSQPPTLASQVNTSAENVSHEIPADQQPIVDFLKEELARVTPLTPKEYSKQLKDCDKRLKILFYHLEKQDLLTQPTIDCLHDLVALMKEKKYKEAMVIHANIATNHAQEGGNWLTGVKRLIGIAEATLN
binding result [3]: binds
